Biological target: ubiquitin-rhodamine (Ub-Rho) (UniProt P0CG48)

In the case of “USP1^WT-UAF1 (active) (from UniProt O94782;Q8TAF3) (complex)”, the KM (= k off/k on) from the KinTek global fit of activity data; +UAF1, Ub-Rho was 5.94 µM.

— article PMC8024992
